The target in assay [1] is T1, human VEGF165 (hVEGF165) (human, UniProt P15692 207-395). As to the kind of experiment: DELFIA competition, biotinylated hVEGF165 0.5 µg/ml plus periplasmic scFv on VEGF-R1 or VEGF-R2 coated plate.
The target of assay [2] is T1, human VEGF165 (hVEGF165). As to the kind of experiment: cell-based or functional assay.
For assay [3], the target named is T2, murine VEGF165 (mVEGF165) (murine, UniProt Q00731-2 27-190).
T2 construct: also called rMu-VEGF165; recombinant mVEGF165
T2 sequence (looked up): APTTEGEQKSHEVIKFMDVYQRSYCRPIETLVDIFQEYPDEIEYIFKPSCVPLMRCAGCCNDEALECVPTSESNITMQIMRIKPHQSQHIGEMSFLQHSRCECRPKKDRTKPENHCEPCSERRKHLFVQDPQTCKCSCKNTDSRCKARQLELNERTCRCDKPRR
In words: sandwich ELISA, antibody coated 5 ug/ml; sandwich ELISA, Ab coated at 5 ug/ml, murine VEGF165 at 1 ug/ml; signal at background, i.e. no binding. As for the experimental part: (§1) The plate was blocked with 30% ChemiBlock™ reagent (Millipore) in PBS for one hour at room temperature, and 30, 60, or 100 μl of CHO-K1 culture supernatant for each mutant, or 1 μg/ml of wild-type hVEGF₁₂₁, recombinant hVEGF₁₆₅, or recombinant mVEGF₁₆₅, was added to appropriate wells. After one hour of incubation, the plate was washed and incubated with a biotinylated goat polyclonal anti-VEGF antibody for one hour at room temperature. Detection was performed with HRP-conjugated streptavidin, followed by TMB chromogenic substrate (Calbiochem) using manufacturer protocol.
In general terms: An ELISA detects its analyte on a solid surface through an enzyme-linked reagent.

The target in assay [4] is T1, human VEGF165 (hVEGF165). In words: Biacore, IgG2 (summary table). As to the method: Dilution and running buffer for these experiments was HBS-EP (Biacore) with 1:50 dilution of Chemiblocker® (Chemicon). […] Antibody concentrations were approximately 0.5 μg/ml. hVEGF₁₆₅ expressed from sf21 cells was injected over five minutes at 30 μl/minute using the Kinject feature with 15 minute dissociation over fc1 and 2. […] Regenerations were performed with two injections of 100 mM HCl at 50 μl/minutes for twelve seconds each. Data was processed in Scrubber2 and fit by a 1:1 Langmuir interaction model after double referencing of the control flow cell and blank injections.
For orientation: SPR reads the build-up and loss of mass on a sensor chip optically.

The next assay deals with T3, hVEGF121-Q89A (human, UniProt P15692-9 27-147, Q89A).
T3 construct: Transiently expressed in CHO-K1 cells; culture supernatant used
T3 sequence (looked up): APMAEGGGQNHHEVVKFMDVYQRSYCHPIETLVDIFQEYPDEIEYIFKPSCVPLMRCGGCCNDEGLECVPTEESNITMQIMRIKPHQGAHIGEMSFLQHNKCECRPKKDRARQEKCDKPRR
As to the kind of experiment: sandwich ELISA, antibody coated 5 ug/ml. As for the experimental part: as §1

A further assay has as its target T4, wild-type hVEGF121 (human, UniProt P15692-9 27-147).
T4 construct: Isoform VEGF121 of P15692
T4 sequence (looked up): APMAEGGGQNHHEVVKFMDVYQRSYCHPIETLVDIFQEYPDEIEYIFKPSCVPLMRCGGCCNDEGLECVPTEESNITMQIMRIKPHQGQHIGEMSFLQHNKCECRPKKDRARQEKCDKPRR
As to the kind of experiment: sandwich ELISA, antibody coated 5 ug/ml. As for the experimental part: as §1

In a further assay the target is T5, hVEGF121-M81A (human, UniProt P15692-9 27-147).
T5 construct: Transiently expressed in CHO-K1 cells; culture supernatant used
T5 sequence (looked up): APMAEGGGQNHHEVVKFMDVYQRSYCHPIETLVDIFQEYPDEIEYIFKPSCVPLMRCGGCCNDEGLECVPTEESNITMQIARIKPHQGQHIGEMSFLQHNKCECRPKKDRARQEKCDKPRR
In words: sandwich ELISA, antibody coated 5 ug/ml. As to the method:
as §1

The next assay has as its target T6, hVEGF121-G88S (human, UniProt P15692-9 27-147, G88S).
T6 construct: Transiently expressed in CHO-K1 cells; culture supernatant used
T6 sequence (looked up): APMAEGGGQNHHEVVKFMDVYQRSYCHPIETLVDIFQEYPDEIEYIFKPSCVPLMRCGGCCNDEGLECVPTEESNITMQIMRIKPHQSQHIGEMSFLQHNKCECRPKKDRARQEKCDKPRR
As to the kind of experiment: sandwich ELISA, antibody coated 5 ug/ml. As to the method:
as §1

Assay [5] addresses T1, human VEGF165 (hVEGF165). In words: sandwich ELISA, antibody coated 5 ug/ml. As for the experimental part:
as §1

The target of a further assay is T7, hVEGF121-G92A (human, UniProt P15692-9 27-147, G92A).
T7 construct: Transiently expressed in CHO-K1 cells; culture supernatant used
T7 sequence (looked up): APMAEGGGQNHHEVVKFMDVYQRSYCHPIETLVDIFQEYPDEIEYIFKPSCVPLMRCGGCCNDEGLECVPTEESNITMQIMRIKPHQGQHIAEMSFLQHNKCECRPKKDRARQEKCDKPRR
As to the kind of experiment: sandwich ELISA, antibody coated 5 ug/ml. As to the method:
as §1

The target of assay [6] is T1, human VEGF165 (hVEGF165). As to the kind of experiment: Biacore.
Assay [7] addresses T1, human VEGF165 (hVEGF165). In words: cell-based or functional assay. The source holds these as a separate data set.

A word on the IC50: it is the point on the concentration scale where inhibition reaches its midpoint. A lower IC50 goes with higher potency. Broadly, the Kd is the equilibrium constant for the complex coming apart. Read a low Kd as higher affinity.

B1: XPA.10.072 scFv (scFv, part only; not given: linker, domain order, tags, V domains shown, not shown: another chain or arm of the molecule; large carriers; small tags and cut ends)
VH: RLQLVQSGAEVRKPGASVKVSCKASGYSFTGHYIHWARQAPGQGLEWMGWINPYSGGTNFPREFQGRVTMTRDTSVNTVYMELTRLTSDDTSVYYCARDHRIVGGLDYWGQGTLVTVSS
VL: QSVLTQPPSASGTPGQRVTISCSGSSSNLGSNFVYWYQQLPGTAPKLLIYRNHQRPSGVPDRFSGSKSGTSASLAISGLRSEDEADYYCASWDDSLRVVVFGGGTKLTVL
For B1, the percent inhibition of hVEGF165 binding to receptor in the assay with human VEGF165 (hVEGF165) [1] is over 60%.

B2: XPA.10.064 scFv-Fc (Fc fusion, not shown: a dimerising Fc or GST; small tags and cut ends)
VH: EVQLVQSGAEVRKPGASVKVSCKASGYSFTGHYIHWVRQAPGQGLEWMGWINPYSGGTNFPREFQGRVTMTRDTSVNTVYMELTRLTSDDTSVYYCARDHRIVGGLDYWGQGTLVTVSS
VL: SYVLTQPPSASGTPGQRVTISCSGSSSNIGINYVYWYQQLPGTAPKLLIYRNDQRPSGVPDRFSGSKSGTSASLAISGLRSEDEADYYCATWDDSLSGVVFGGGTKVTVL
With B2, the IC50 with human VEGF165 (hVEGF165) [2] is 0.41 µg/mL.

B3: XPA.10.072 scFv-Fc (Fc fusion, not shown: a dimerising Fc or GST; small tags and cut ends)
VH: RLQLVQSGAEVRKPGASVKVSCKASGYSFTGHYIHWARQAPGQGLEWMGWINPYSGGTNFPREFQGRVTMTRDTSVNTVYMELTRLTSDDTSVYYCARDHRIVGGLDYWGQGTLVTVSS
VL: QSVLTQPPSASGTPGQRVTISCSGSSSNLGSNFVYWYQQLPGTAPKLLIYRNHQRPSGVPDRFSGSKSGTSASLAISGLRSEDEADYYCASWDDSLRVVVFGGGTKLTVL
B3 gave an IC50 with human VEGF165 (hVEGF165) [2] of over 1 µg/mL.

B4: XPA.10.064 scFv (scFv, part only; not given: linker, domain order, tags, V domains shown, not shown: another chain or arm of the molecule; large carriers; small tags and cut ends)
VH: EVQLVQSGAEVRKPGASVKVSCKASGYSFTGHYIHWVRQAPGQGLEWMGWINPYSGGTNFPREFQGRVTMTRDTSVNTVYMELTRLTSDDTSVYYCARDHRIVGGLDYWGQGTLVTVSS
VL: SYVLTQPPSASGTPGQRVTISCSGSSSNIGINYVYWYQQLPGTAPKLLIYRNDQRPSGVPDRFSGSKSGTSASLAISGLRSEDEADYYCATWDDSLSGVVFGGGTKVTVL
Take B4: in the assay with human VEGF165 (hVEGF165) [1], the percent inhibition of hVEGF165 binding to receptor is over 60%.

B5: XPA.10.072 IgG2 (antibody, V domains shown)
VH: RLQLVQSGAEVRKPGASVKVSCKASGYSFTGHYIHWARQAPGQGLEWMGWINPYSGGTNFPREFQGRVTMTRDTSVNTVYMELTRLTSDDTSVYYCARDHRIVGGLDYWGQGTLVTVSS
VL: QSVLTQPPSASGTPGQRVTISCSGSSSNLGSNFVYWYQQLPGTAPKLLIYRNHQRPSGVPDRFSGSKSGTSASLAISGLRSEDEADYYCASWDDSLRVVVFGGGTKLTVL
notes: Fully human antibody from an scFv phage library, converted to IgG2 (gamma-2 heavy chain constant region); also called XPA.072; VPA.10.072
As to B5, the fold over background in assay [3] is 1.1 fold; with hVEGF121-Q89A it was 3.3 fold; with wild-type hVEGF121, 31.8 fold; with hVEGF121-M81A, 13.4 fold; with hVEGF121-G88S it was 1 fold; in the assay with human VEGF165 (hVEGF165) [5] it was 29.2 fold. Further, the fold over background with hVEGF121-G92A came to 30.5 fold. In addition, the affinity with human VEGF165 (hVEGF165) [4], expressed as Kd, was 1.7 nM. Besides, the “off-rate relative to Bevacizumab” value in the assay with human VEGF165 (hVEGF165) [6] is about 2 fold. The “Inhibition of HUVEC proliferation, HEK 293 hVEGF165, EC50” value with human VEGF165 (hVEGF165) [7] is 0.68 µg/mL.

B6: XPA.10.064 IgG2 (antibody, V domains shown)
VH: EVQLVQSGAEVRKPGASVKVSCKASGYSFTGHYIHWVRQAPGQGLEWMGWINPYSGGTNFPREFQGRVTMTRDTSVNTVYMELTRLTSDDTSVYYCARDHRIVGGLDYWGQGTLVTVSS
VL: SYVLTQPPSASGTPGQRVTISCSGSSSNIGINYVYWYQQLPGTAPKLLIYRNDQRPSGVPDRFSGSKSGTSASLAISGLRSEDEADYYCATWDDSLSGVVFGGGTKVTVL
notes: Fully human antibody from an scFv phage library, converted to IgG2 (gamma-2 heavy chain constant region); also called VPA.10.064
Turning to B6, the fold over background in [3] turned out to be 0.7 fold; in the assay with hVEGF121-Q89A, 3.5 fold; with wild-type hVEGF121 it was 29.1 fold; with hVEGF121-M81A it was 9.5 fold; with hVEGF121-G88S, 0.9 fold; with human VEGF165 (hVEGF165) [5], 23 fold. For the same molecule, in the assay with hVEGF121-G92A, the fold over background worked out at 22.8 fold. The same molecule registered a Kd with human VEGF165 (hVEGF165) [4] of 1.5 nM. Also, the “off-rate relative to Bevacizumab” value in the assay with human VEGF165 (hVEGF165) [6] is about 2 fold. Also, in the assay with human VEGF165 (hVEGF165) [7], the “Inhibition of HUVEC proliferation, HEK 293 hVEGF165, EC50” value is 0.66 µg/mL.

Source of the values: patent US20110076279A1 (SCHERING, published 2011).
